Assay results: publication PMC3485183
Blank lines part the entries; values can stand above or below the substance they belong to.

Key:
[1] = biological target: HA-tagged RCAN1-3KR mutant (human); assay: co-IP; HEK293 cells co-transfected with Flag-calcineurin and HA-tagged wild-type RCAN1 or RCAN1-3KR; IP with HA antibody, blot with Flag antibody
[2] = biological target: Flag-calcineurin (UniProt Q08209)
[3] = biological target: HA-tagged wild-type calcineurin A (UniProt Q08209); assay: co-IP; HEK293 cells co-transfected with HA-calcineurin and Myc-RCAN1, without or with T7-NEDD8, NEDD8-ΔGG, or after NEDD8 or control siRNA (60 nM); lysis in 1% NP40 buffer; IP with HA antibody, blot with Myc antibody

Chain of Myc-RCAN1 (P53805 whole entry): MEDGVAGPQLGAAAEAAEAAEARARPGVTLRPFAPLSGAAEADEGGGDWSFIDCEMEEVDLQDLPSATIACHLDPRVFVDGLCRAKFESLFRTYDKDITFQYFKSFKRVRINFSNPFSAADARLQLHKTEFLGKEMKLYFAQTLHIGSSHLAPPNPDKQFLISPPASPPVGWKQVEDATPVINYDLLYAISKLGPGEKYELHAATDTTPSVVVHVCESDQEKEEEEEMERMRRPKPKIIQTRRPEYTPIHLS

- reduction of binding against wild-type RCAN1 [1]: 40%
Substance: Flag-calcineurin (from UniProt Q08209 1-521) (enzyme)

- NFAT-luciferase reporter activity in HEK293 cells treated with ionomycin, inhibition against reporter alone [2]: > 60%
Substance: HA-tagged human wild-type RCAN1 (RCAN1-1S) (natural protein)

- increase of binding with co-expressed wild-type NEDD8, against no NEDD8 [3]: 30%
Substance: Myc-RCAN1 (natural protein)
